We go through three variants from publication PMC8805157 (2021).

B1: GFP-Atg11 (wild type) [S. cerevisiae] / PA-Atg19 [S. cerevisiae] (parent complex)
chain 1: MADADEYSTAPTQQEITPLQTTATIINAISGECITTNVDFFVSLDKFKQFIARKWKIPPDQLLILLPYGNKLKPSMFKELLINRSFTLNDFYVYDRRLFSLVSKPTPTNLLTSKDSNPMNSPNSNDLTETLEYLIKNSHISQYQGSDTIMIKPMPSPLEDADVDLSRLNYHSVTSLLTTNLGWLSALEIDVHYFKSLIPDIIAHIKRIFDGLTVCSQYLKLYCFDVESLYNSNVQFLNQLVDNGMTSKWEKCFNDTLSKLTALEGDSLQKFINIESLLENEKSVKILNHSINGKLNKIKREIDENASFRDIITVNIDRLRQMFTPNESKFELEDQMAESFEVLVSEMRTRSRNVLDKEEEEFNSQEFLKSMNVMLEKDKKESVKTLFTISQALYSQIGELIDLKKSLQKHAVAILGNIAFTQMEILGIKRLLLNECNKDLELYKKYEVEFAQVEDLPLIYGLYLIEKYRRLSWFQQILSFISNFNQDLELFKQNELRTRNKWVKNFGSIATVFCEDLLSSSDFKRLNEYHSHTSPPNEDEEDENENSIANYRQDLVKVSQAIDNYMTQIKETDVSEPIIDLLSKTLFETKRFHIIYSNFKNNNNNSSNGNSISPEGSIALKSDDVVKGYKTRIKKLESLLHEFQYSDIGHWPQGVLNTHLKPFRGSATSINKKKFLGASVLLEPANISEVNIDSVSQANNHQIQELESNVDDLLHQLQLLKEENNRKSMQISEMGKKISDLEVEKTAYRETLTNLNQELARLTNEEQSHRTEIFTLNASFKKQLNDIISQDNEKIEKLTGDYDDVSKSRERLQMDLDESNKKHEQEVNLLKADIERLGKQIVTSEKSYAETNSSSMEKGEKFETIPLAEDPGRENQISAYTQTLQDRIFDIISTNIFILENIGLLLTFDNNNNIQIRRVKGLKKGTAQSNILDESTQMLDAHDNSLIKSPVFQKLKDEYELIKSVANGSEKDTQQSIFLGNITQLYDNKLYEVAVIRRFKDIETLAKKLTKENKIKRTLLERFQREKVTLRNFQIGDLALFLPTRENVNSVGSMSSSTSSLSSSFSSVDLSTPPPLDAMSIQSSPSVIHSNVINQASISGRDKNKLMRPWAAFTAFEESTRYFLKDEKGLTKGKEWFVGRIVTLEHFVADSPSNNPFRLPKGSVWFQVTAVVVSYQGV
chain 2: MNNSKTNQQMNTSMGYPLTVYDECNKFQLIVPTLDANIMLWCIGQLSLLNDSNGCKHLFWQPNDKSNVRILLNNYDYGHLFKYLQCQRKCSVYIGEGTLKKYNLTISTSFDNFLDLTPSEEKESLCREDAHEDPVSPKAGSEEEISPNSTSNVVVSRECLDNFMKQLLKLEESLNKLELEQKVTNKEPNHRISGTIDIPEDRSELVNFFTELKTVKQLEDVFQRYHDYERLSQECDSKTEIASDHSKKETKIEVEPPNERSLQITMNQRDNSLYFQLFNNTNSVLAGNCKLKFTDAGDKPTTQIIDMGPHEIGIKEYKEYRYFPYALDLEAGSTIEIENQYGEVIFLGKYGSSPMINLRPPSRLSAESLQASQEPFYSFQIDTLPELDDSSIISTSISLSYDGDDNEKALTWEEL
B2: GFP-Atg11 (wild type) [S. cerevisiae] / Atg1-PA [S. cerevisiae] (parent complex)
chain 1: B1 chain 1
chain 2: MGDIKNKDHTTSVNHNLMASAGNYTAEKEIGKGSFATVYRGHLTSDKSQHVAIKEVSRAKLKNKKLLENLEIEIAILKKIKHPHIVGLIDCERTSTDFYLIMEYCALGDLTFLLKRRKELMENHPLLRTVFEKYPPPSENHNGLHRAFVLSYLQQLASALKFLRSKNLVHRDIKPQNLLLSTPLIGYHDSKSFHELGFVGIYNLPILKIADFGFARFLPNTSLAETLCGSPLYMAPEILNYQKYNAKADLWSVGTVVFEMCCGTPPFRASNHLELFKKIKRANDVITFPSYCNIEPELKELICSLLTFDPAQRIGFEEFFANKVVNEDLSSYELEDDLPELESKSKGIVESNMFVSEYLSKQPKSPNSNLAGHQSMADNPAELSDALKNSNILTAPAVKTDHTQAVDKKASNNKYHNSLVSDRSFEREYVVVEKKSVEVNSLADEVAQAGFNPNPIKHPTSTQNQNVLLNEQFSPNNQQYFQNQGENPRLLRATSSSSGGSDGSRRPSLVDRRLSISSLNPSNALSRALGIASTRLFGGANQQQQQQQITSSPPYSQTLLNSQLFHELTENIILRIDHLQHPETLKLDNTNIVSILESLAAKAFVVYSYAEVKFSQIVPLSTTLKGMANFENRRSMDSNAIAEEQDSDDAEEEDETLKKYKEDCLSTKTFGKGRTLSATSQLSATFNKLPRSEMILLCNEAIVLYMKALSILSKSMQVTSNWWYESQEKSCSLRVNVLVQWLREKFNECLEKADFLRLKINDLRFKHASEVAENQTLEEKGSSEEPVYLEKLLYDRALEISKMAAHMELKGENLYNCELAYATSLWMLETSLDDDDFTNAYGDYPFKTNIHLKSNDVEDKEKYHSVLDENDRIIIRKYIDSIANRLKILRQKMNHQN
B3: GFP-Atg11 (wild type) [S. cerevisiae] / Atg9-PA [S. cerevisiae] (parent complex)
chain 1: B1 chain 1
chain 2: MERDEYQLPNSHGKNTFLSRIFGLQSDEVNPSLNSQEMSNFPLPDIERGSSLLHSTNDSREDVDENDLRVPESDQGTSTEEEDEVDEEQVQAYAPQISDGLDGDHQLNSVTSKENVLETEKSNLERLVEGSTDDSVPKVGQLSSEEEEDNEFINNDGFDDDTPLFQKSKIHEFSSKKSNTIEDGKRPLFFRHILQNNRPQRDTQKLFTSSNAIHHDKDKSANNGPRNINGNQKHGTKYFGSATQPRFTGSPLNNTNRFTKLFPLRKPNLLSNISVLNNTPEDRINTLSVKERALWKWANVENLDIFLQDVYNYYLGNGFYCIILEKILNICTLLFVVFVSTYMGHCVDYSKLPTSHRVSDIIIDKCYSNSITGFTKFFLWMFYFFVILKIVQLYFDVQKLSELQNFYKYLLNISDDELQTLPWQNVIQQLMYLKDQNAMTANVVEVKAKNRIDAHDVANRIMRRENYLIALYNSDILNLSLPIPLFRTNVLTKTLEWNINLCVMGFVFNESGFIKQSILKPSQREFTREELQKRFMLAGFLNIILAPFLVTYFVLLYFFRYFNEYKTSPGSIGARQYTPIAEWKFREYNELYHIFKKRISLSTTLANKYVDQFPKEKTNLFLKFVSFICGSFVAILAFLTVFDPENFLNFEITSDRSVIFYITILGAIWSVSRNTITQEYHVFDPEETLKELYEYTHYLPKEWEGRYHKEEIKLEFCKLYNLRIVILLRELTSLMITPFVLWFSLPSSAGRIVDFFRENSEYVDGLGYVCKYAMFNMKNIDGEDTHSMDEDSLTKKIAVNGSHTLNSKRRSKFTAEDHSDKDLANNKMLQSYVYFMDDYSNSENLTGKYQLPAKKGYPNNEGDSFLNNKYSWRKQFQPGQKPELFRIGKHALGPGHNISPAIYSTRNPGKNWDNNNNGDDIKNGTNNATAKNDDNNGNNDHEYVLTESFLDSGAFPNHDVIDHNKMLNSNYNGNGILNKGGVLGLVKEYYKKSDVGR

Variants of B1 are the subject of the first experiment. The experiment can be described thus: CoIP (quantified western blot); proteins overexpressed with a CUP1 promoter in an atg11∆ strain; five independent replicates; read off a plot. On the technique in general: A western blot detects proteins with antibodies after separation by electrophoresis.
As to chain 1 Y565E, the ratio to parent was approximately 0.88.

The variants in a further experiment derive from B2. The experiment can be described thus: CoIP (quantified western blot); endogenously driven Atg1-PA; overexpressed GFP-Atg11; four independent replicates; read off a plot.
In the case of chain 1 Y565E, the ratio to parent was approximately 0.13.

The next experiment covers variants of B3. Nature of the experiment: CoIP (quantified western blot); proteins overexpressed with a CUP1 promoter in an atg11∆ strain; ≥ 3 independent replicates; read off a plot.
Consider chain 1 Y565E, for which the ratio to parent is approximately -0.05.
